The source of these data is publication PMC11804915, “Single-stranded DNA binding to the transcription factor PafBC triggers the mycobacterial DNA damage response”.

Positions count from the first letter of the chain named.

Holding throughout (conditions): protein: recombinant; tags: C-terminal Strep on PafC; copies: 1;1; label: FAM; single strand
Data set [1] deals with T1, PafBC, PafB Y196A (Mycobacterium smegmatis, UniProt A4ZHT0;A0QZ41 1-331;1-318, Y196A).
T1 sequence 1: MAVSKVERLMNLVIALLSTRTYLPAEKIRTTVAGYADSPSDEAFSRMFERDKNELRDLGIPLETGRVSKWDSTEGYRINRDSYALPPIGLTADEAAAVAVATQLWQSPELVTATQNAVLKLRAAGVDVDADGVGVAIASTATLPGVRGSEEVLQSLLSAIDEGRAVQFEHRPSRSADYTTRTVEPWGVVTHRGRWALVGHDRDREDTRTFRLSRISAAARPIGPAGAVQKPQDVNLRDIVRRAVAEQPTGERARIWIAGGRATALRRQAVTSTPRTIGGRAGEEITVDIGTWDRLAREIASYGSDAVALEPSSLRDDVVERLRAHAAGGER
T1 sequence 2: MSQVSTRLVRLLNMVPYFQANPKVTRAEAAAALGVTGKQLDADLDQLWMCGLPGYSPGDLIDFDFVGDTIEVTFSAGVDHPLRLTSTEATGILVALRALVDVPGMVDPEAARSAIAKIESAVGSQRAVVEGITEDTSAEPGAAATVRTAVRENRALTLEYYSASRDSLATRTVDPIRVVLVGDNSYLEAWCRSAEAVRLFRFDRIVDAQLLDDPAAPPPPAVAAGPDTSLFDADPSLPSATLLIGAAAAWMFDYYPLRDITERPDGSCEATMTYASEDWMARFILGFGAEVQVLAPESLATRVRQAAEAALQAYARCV
The data set can be described thus: EMSA; up to 16 uM; ssDNA EMSA: 22.5 mM Hepes-KOH pH 7.8, 135 mM NaCl, 20 mM KCl, 5 mM MgCl2, 1 mM DTT, 37 C 15 min, 10 nM DNA, 0-16 uM PafBC; RNAP EMSA: 20 mM Hepes-NaOH pH 8, 100 mM K-acetate, 36 mM NaCl, 10 mM MgCl2, 2 mM DTT, 37 C 30 min.

For data set [2], the target named is T2, PafBC, PafB R181A/R204A/R208A (Mycobacterium smegmatis, UniProt A4ZHT0;A0QZ41 1-331;1-318, R204A;R208A;PafB:R181A).
T2 sequence 1: T1 sequence 1 with A196Y, R204A, R208A
T2 sequence 2: T1 sequence 2
The description is as above.

Data set [3] deals with T3, PafBC WT (Mycobacterium smegmatis, UniProt A4ZHT0;A0QZ41 1-331;1-318).
T3 sequence 1: T1 sequence 1 with A196Y
T3 sequence 2: T1 sequence 2
The data set can be described thus: EMSA; low micromolar affinity; ssDNA EMSA: 22.5 mM Hepes-KOH pH 7.8, 135 mM NaCl, 20 mM KCl, 5 mM MgCl2, 1 mM DTT, 37 C 15 min, 10 nM DNA, 0-16 uM PafBC; RNAP EMSA: 20 mM Hepes-NaOH pH 8, 100 mM K-acetate, 36 mM NaCl, 10 mM MgCl2, 2 mM DTT, 37 C 30 min.

Data set [4] addresses T4, PafBC, PafC WYL variant (Mycobacterium smegmatis, UniProt A4ZHT0;A0QZ41 1-331;1-318, R201A;R204A).
T4 sequence 1: T1 sequence 1 with A196Y
T4 sequence 2: T1 sequence 2 with R201A, R204A
Kind of data set: EMSA; affinity comparable to WT; ssDNA EMSA: 22.5 mM Hepes-KOH pH 7.8, 135 mM NaCl, 20 mM KCl, 5 mM MgCl2, 1 mM DTT, 37 C 15 min, 10 nM DNA, 0-16 uM PafBC; RNAP EMSA: 20 mM Hepes-NaOH pH 8, 100 mM K-acetate, 36 mM NaCl, 10 mM MgCl2, 2 mM DTT, 37 C 30 min. A general note: In EMSA bound probe runs differently from free probe, usually more slowly.

B1: dT20 ssDNA (ssDNA)
DNA: TTTTTTTTTTTTTTTTTTTT
Turning to B1, the binding result in data set [1] is “no binding”; in data set [2], “no binding”; in data set [3] it was “binds”; in data set [4], “binds”.
